Data: patent US20130078247A1 (Boehringer Ingelheim, published 2013)
Each block holds one binder with its values, some of them ahead of it.

What was measured:
[1] = target: T1, recombinant human DLL4 extracellular domain, C-terminally His-tagged (R&D Systems) (human, UniProt Q9NR61 25-522, biotinylated in the competition assays (sites not given)); assay: cell-based or functional assay
[2] = target: T2, human DLL4, full length, overexpressed on CHO or HEK293 cells (human, UniProt Q9NR61 27-685); assay: cell-based or functional assay
[3] = target: T2, human DLL4, full length, overexpressed …; assay: periplasmic extract; FMAT, Notch1/Fc on CHO-hDLL4
From the text: (§1) All calculations are based on the FL1_total signal which comprises the average of the fluorescence per well times the number of counts per well.

[4] = target: T3, mouse DLL4, full length, overexpressed on CHO or HEK293 cells (mouse, UniProt Q9JI71 27-686); assay: periplasmic extract; FMAT, Notch1/Fc on CHO-mDLL4
T3 construct: whole, on cells; also called CHO-mDLL4; CHO-mDII4
T3 sequence (Q9JI71 27-686): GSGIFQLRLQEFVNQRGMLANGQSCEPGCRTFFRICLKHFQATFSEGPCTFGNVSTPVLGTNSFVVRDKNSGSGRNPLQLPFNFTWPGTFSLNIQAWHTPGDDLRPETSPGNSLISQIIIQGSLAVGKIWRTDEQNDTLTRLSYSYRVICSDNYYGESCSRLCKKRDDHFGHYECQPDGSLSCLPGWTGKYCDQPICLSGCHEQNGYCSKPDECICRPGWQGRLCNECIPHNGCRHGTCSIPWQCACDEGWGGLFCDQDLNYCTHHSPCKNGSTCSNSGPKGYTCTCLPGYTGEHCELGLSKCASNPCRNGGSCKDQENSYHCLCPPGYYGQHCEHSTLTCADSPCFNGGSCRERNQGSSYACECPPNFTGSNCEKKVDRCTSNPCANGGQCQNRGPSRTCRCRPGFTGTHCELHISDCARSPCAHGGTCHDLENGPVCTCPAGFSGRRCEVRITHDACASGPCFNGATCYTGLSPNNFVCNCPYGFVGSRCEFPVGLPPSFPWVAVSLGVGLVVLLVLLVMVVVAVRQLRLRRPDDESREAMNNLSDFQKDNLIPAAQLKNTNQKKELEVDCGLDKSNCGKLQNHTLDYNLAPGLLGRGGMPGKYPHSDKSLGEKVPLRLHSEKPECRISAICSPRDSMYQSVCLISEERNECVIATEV
From the text: as §1

[5] = target: T1, recombinant human DLL4 extracellular …; assay: periplasmic extract; hDLL4 ELISA
[6] = target: T1, recombinant human DLL4 extracellular …; assay: periplasmic extract; Biacore off-rate
[7] = target: T1, recombinant human DLL4 extracellular …; assay: periplasmic extract; hDLL4/hNotch1 AlphaScreen
Procedure: To this mixture, the acceptor beads and the streptavidin donor beads are added and further incubated for 1 hour at room temperature. Fluorescence is measured by reading plates on the Envision Multilabel Plate reader (Perkin Elmer, Waltham, Mass., USA) using an excitation wavelength of 680 nm and an emission wavelength of 520 nm.

[8] = target: T4, recombinant mouse DLL4 extracellular domain, C-terminally His-tagged (R&D Systems) (mouse, UniProt Q9JI71 27-525); assay: binding ELISA on coated rmDLL4
T4 construct: range 1-525; also called rmDLL4; mDLL4; not shown: C-terminal His tag
T4 sequence (Q9JI71 27-525 limits assumed): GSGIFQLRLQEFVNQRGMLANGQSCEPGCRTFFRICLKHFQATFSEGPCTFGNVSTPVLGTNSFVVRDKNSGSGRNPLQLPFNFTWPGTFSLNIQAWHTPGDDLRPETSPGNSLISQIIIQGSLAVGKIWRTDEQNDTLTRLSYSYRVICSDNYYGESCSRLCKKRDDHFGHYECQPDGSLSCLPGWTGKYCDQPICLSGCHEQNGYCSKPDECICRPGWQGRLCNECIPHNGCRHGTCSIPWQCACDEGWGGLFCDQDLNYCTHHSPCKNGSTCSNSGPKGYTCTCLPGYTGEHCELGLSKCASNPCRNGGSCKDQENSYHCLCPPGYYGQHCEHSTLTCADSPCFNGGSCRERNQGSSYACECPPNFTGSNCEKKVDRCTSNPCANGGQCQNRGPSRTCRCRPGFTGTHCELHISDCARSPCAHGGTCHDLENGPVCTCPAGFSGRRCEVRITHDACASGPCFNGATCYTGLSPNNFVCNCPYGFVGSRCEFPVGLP
Procedure: In order to determine cross-reactivity to mouse DII4 a binding ELISA is performed. […] Wells are blocked with a casein solution (1% in PBS). VHHs are applied as dilution series and binding is detected using a mouse anti-myc (Roche) and an anti-mouse-AP conjugate (Sigma, St Louis, Mo., USA) (FIG. 7).

[9] = target: T5, recombinant human Jagged-1 (Alexis) (human, UniProt P78504 34-1067, limits assumed); assay: rhDLL1/rhJAG1 binding ELISA
T5 construct: also called hJagged-1; hJAG1

[10] = target: T6, recombinant human DLL1 (Alexis) (human, UniProt O00548 18-545, limits assumed); assay: rhDLL1/rhJAG1 binding ELISA
T6 construct: also called hDLL1; rhDLL1
T6 sequence (looked up): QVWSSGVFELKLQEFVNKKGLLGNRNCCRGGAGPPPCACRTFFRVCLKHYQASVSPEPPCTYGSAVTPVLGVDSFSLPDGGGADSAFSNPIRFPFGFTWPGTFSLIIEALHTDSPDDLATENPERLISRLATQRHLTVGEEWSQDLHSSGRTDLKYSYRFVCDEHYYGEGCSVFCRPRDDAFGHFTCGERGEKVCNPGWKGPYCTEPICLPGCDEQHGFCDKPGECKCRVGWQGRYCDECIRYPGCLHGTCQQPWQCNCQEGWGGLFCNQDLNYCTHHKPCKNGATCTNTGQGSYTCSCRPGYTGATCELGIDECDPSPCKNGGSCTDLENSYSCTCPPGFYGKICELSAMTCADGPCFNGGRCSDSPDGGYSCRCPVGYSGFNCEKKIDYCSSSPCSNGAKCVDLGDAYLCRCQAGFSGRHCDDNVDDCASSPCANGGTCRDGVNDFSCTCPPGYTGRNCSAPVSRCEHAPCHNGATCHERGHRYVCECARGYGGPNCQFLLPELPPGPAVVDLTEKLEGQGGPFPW

human Ang2 = target: T7, human Ang2 (human, UniProt O15123 19-496, limits assumed); assay: competition ELISA hAng2/hTie2-Fc
T7 construct: also called hAng2; human Angiopoietin2
T7 sequence (looked up): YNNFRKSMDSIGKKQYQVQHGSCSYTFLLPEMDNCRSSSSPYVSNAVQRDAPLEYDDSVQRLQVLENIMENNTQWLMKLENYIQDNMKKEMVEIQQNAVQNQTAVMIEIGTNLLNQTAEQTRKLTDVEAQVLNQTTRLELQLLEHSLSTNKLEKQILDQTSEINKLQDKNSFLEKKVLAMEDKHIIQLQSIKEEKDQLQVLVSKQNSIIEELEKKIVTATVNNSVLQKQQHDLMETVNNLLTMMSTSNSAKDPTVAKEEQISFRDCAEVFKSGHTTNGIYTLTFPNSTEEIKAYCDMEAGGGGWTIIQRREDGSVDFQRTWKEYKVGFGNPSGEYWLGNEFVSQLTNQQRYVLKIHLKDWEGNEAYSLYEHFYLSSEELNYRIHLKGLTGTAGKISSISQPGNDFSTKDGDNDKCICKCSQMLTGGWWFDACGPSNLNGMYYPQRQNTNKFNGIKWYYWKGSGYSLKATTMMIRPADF
Procedure: This assay is also performed after incubation of the VHH with 0.5 μM human serum albumin.

[11] = target: T8, cynomolgus DLL4, full length, overexpressed on cells (cynomolgus, UniProt Q9NR61 27-685 (human entry)); assay: FACS titration on HEK293-cDLL4 cells
T8 construct: also called CHO-cDLL4; cDLL4
T8 chain: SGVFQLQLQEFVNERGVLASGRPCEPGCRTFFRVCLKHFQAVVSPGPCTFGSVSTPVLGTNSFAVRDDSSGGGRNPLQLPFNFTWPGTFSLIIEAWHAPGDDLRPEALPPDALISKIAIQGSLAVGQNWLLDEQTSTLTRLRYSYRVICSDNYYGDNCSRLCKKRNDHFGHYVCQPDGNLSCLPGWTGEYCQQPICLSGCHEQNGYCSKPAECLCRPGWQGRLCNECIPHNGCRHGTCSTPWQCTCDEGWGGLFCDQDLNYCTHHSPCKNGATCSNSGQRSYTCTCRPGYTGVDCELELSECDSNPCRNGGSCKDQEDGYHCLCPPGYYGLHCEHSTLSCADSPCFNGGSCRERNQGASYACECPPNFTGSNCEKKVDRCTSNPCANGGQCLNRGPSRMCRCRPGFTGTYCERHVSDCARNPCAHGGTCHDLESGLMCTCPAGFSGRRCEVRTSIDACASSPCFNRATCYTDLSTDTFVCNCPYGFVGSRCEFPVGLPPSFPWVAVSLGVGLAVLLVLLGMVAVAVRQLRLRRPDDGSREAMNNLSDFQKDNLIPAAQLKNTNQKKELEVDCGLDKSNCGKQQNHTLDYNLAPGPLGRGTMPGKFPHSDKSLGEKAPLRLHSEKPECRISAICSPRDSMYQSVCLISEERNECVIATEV
Procedure: In order to determine the cynomologus cross-reactivity of the VHHs, a FACS binding experiment is performed. Cynomolgus DII4 expressing HEK293 cells (transient or stable transfection) are used for a titration binding experiment of the VHHs. After a 30 minutes incubation on ice, all samples are washed and detection is performed by applying anti-c-myc-Alexa647 (Santa Cruz Biotechnology, Santa Cruz, Calif., USA). Human and mouse DII4 overexpressing HEK293 cells are taken as reference. The mean MCF value is determined on the FACS Array and used for calculation of the EC₅₀ value (see FIG. 9).

B2: DLLBII62C11 (VHH)
VHH: EVQLMESGGGLVQPGGSLRLSCVAAGFTFSNYYMSWVRQAPGKGLEWVSVISPDGSNTYYADTVKGRFTISRGNAKNTLFLQMTGLKSEDAAVYYCARGSGSWGVHGQGTQVTVSS
notes: not shown: C-terminal c-myc and His6 tags
IC50, DLL4/Notch1 reporter assay (luciferase; co-culture with HEK293-hDII4) [2]: 4660 nM
% inhibition [3]: 74%
% inhibition [4]: 71%

B3: DLLBII19D10 (VHH)
VHH: EVQLVESGGGLVQAGDSLRLSCAASGRTVGSYDMSWVRQGPGKEREWVSSINSGVGKTYYADSVKGRFTIFRDNAKNMVYLQMNNLKPEDTAVYYCATEMDGSRYVEGQGTQVTVSS
notes: as for B2
% inhibition [5]: 98%
koff [6]: 0.0013 s⁻¹
% inhibition [7]: 85%

B4: DLLBII17F10 (VHH)
VHH: EVQLVESGGGLVQAGGSLRLSCASSGRTLLNYAMGWFRQAPGKEREFVSGINWSGGSTYYADSVKGRFTISRDNAENTVYLHMNSLKPEDTAVYYCAAAHDNYWFTDDSLGRGLKYWGQGTQVTVSS
notes: as for B2
% inhibition [5]: 98%
binding result [8]: no binding (tested: 2.5e-7 M)
% inhibition [7]: 88%

B8: 00045 (VHH)
VHH: EVQLVESGGGLVQPGGSLRLSCAASGFALDYYAIGWFRQAPGKEREGVSCISSSDGITYYADSVKGRFTISRDNSKNTVYLQMNSLRPEDTAVYYCATDSGGYIDYDCMGLGYDYWGQGTLVTVSS
IC50 (read off the curve) (human Ang2): ~0.1 nM

B10: DLLBII17G10 (VHH)
VHH: EVQLVESGGGLVQAGGSLRLSCAASGSTFSSYAMGWYRHQAPGKQRELVAAISSDGSTHYADSVKGRFTISRDNAKNTMYLQMNSLKPEDTAVYYCNTKTFGSNWYDDYWGQGTQVTVSS
notes: as for B2
% inhibition [5]: 93%
koff [6]: 0.0015 s⁻¹
% inhibition [7]: 82%

B11: DLLBII101G08 (VHH)
VHH: EVQLVESGGGLVQAGGSLRLSCAASGRTFSSYAMAWFRQAPGKEREFVAAIRWSGGTAYYADSVQGRFTISRDNAKNTVYLQMNSLKPEDTAVYYCANRAADTRLGPYEYDYWGQGTQVTVSS
notes: also called 101G8; DLLBII101G8; not shown: C-terminal c-myc and His6 tags
concentration giving complete inhibition, HUVEC proliferation assay [1]: 10 µM
IC50, DLL4/Notch1 reporter assay (luciferase; co-culture with HEK293-hDII4) [2]: 2760 nM
EC50 (read off the curve) [11]: ~8 nM
% inhibition [3]: 91%
% inhibition [4]: 92%

B12: DLLBII96C03 (VHH)
VHH: EVQLVESGGGLVQPGGSLRLSCAASGFTFGNYDMSWVRQAPGKGPEWVSAINSGGGDTYYADSVKGRFTISRDNAKNTLYLQMNSLKPEDTAVYYCATPRGWGPTGPHEYGYWGQGTQVTVSS
notes: also called 96CO3; 96C3; not shown: C-terminal c-myc and His6 tags
IC50, DLL4/Notch1 reporter assay (luciferase; co-culture with HEK293-hDII4) [2]: 5160 nM
% inhibition [3]: 75%
% inhibition [4]: 83%

Other lines, results leading:

concentration giving complete inhibition, HUVEC proliferation assay [1]: 10 µM
IC50, DLL4/Notch1 reporter assay (luciferase; co-culture with HEK293-hDII4) [2]: 964 nM
% inhibition [3]: 94%
% inhibition [4]: 86%
B1: DLLBII104G01 (VHH)
VHH: EVQLVESGGGLVQAGGSLRLSCAASGFTFDDYAIGWFRQAPGKEREGVSCISSSDGSTYYADSVKGRFTISSDNAKNTVYLQMNSLKPEDTAVYYCATAWCDSSWYRSFVGYWGQGTQVTVSS
notes: also called 104G1; DLLBII104G1; not shown: C-terminal c-myc and His6 tags

concentration giving complete inhibition, HUVEC proliferation assay [1]: 10 µM
IC50, DLL4/Notch1 reporter assay (luciferase; co-culture with HEK293-hDII4) [2]: 1740 nM
% inhibition [3]: 74%
% inhibition [4]: 84%
B5: DLLBII115A05 (VHH)
VHH: EVQLVESGGGLVQPGGSLRLSCAASGFTFGSYDMSWVRRSPGKGPEWVSSINSGGGSTYYADFVKGRFTISRDNAKNTLYLQMNSLKPEDTAVYYCAADRYIRARQGDYWGAYEYDYWGQGTQVTVSS
notes: also called 115A5; DLLBII115A5; not shown: C-terminal c-myc and His6 tags

binding result [9]: no binding
binding result [10]: no binding
EC50 (read off the curve) [8]: ~0.5 nM
B6: DLLBII133G05 (VHH)
VHH: EVQLVESGGGLVQPGGSLRLSCAASGFTFGSYDMSWVRRSPGKGPEWVSAINSGGGSTYYTDYVKGRFTISRDNAKNTLYLQMNSLKPEDTAVYYCAADRYIWARQGEYWGAYAYDYWGQGTQVTVSS
notes: as for B2

binding result [9]: no binding
binding result [10]: no binding
B7: DLLBII136C07 (VHH)
VHH: EVQLVESGGGLVQPGGSLRLSCAASGFTFGSYDMSWVRRSPGKGPEWVSSINSGGGSTYYADYVKGRFTISRDNAKNTLYLQMNSLKPEDTAVYYCAADRYIWARQGEYWGAYEYDYWGQGTQVTVSS
notes: as for B2

binding result [11]: binds
B9: DLLBII55D12 (VHH)
VHH: EVQLVESGGGLVQPGGSLRLSCAASGFTFDDYAIGWFRQAPGKEPEGISCISSSGGITYYADSVKGRFTISRDNAKNTVYLQMNSLKPEDTAVYYCATPGIAACRGIHYTGQGTQVTVSS
notes: as for B2
